Source: patent US12570994B2, “Plants having increased tolerance to herbicides” (BASF AGRO B.V., priority 2010, dated 2026)
Where a chain is given by its changes, count along the chain named. Names may count otherwise.

Legend:
[1] = system: Chlamydomonas reinhardtii; assay: Selection of mutagenized algae cells on solid medium with herbicide; settings: solid medium containing 1×10^−7 M
Procedure: Algae cells of Chlamydomonas reinhardtii strains CC-503 and CC-1691 (Duke University, Durham, USA) are propagated in TAP medium (Gorman and Levine (1965) PNAS 54:1665-1669) by constant shaking at 100 rpm, 22° C. and 30 μmol Phot*m^−2*s^−2 light illumination. […] Compound screening is performed at 450 μmol Phot*m^−2*s^−2 illumination.
Sensitive strains of Chlamydomonas reinhardtii or Scenedesmus obliquus are mutated with 0.14 M ethylmethanesulfonate (EMS) for 1 h as described by Loppes (1969, 20 Mol Gen Genet 104:172-177) Tolerant strains are identified by screening of mutagenized cells on solid nutrient solution plates containing benzoxazinone-derivative herbicide of interest at low to lethal concentrations depending on compound activity in specific algae strain.
(A) Mutagenized cells plated on solid medium without a selecting agent. (B) Mutagenized cells plated on solid medium containing 1×10^−7 M benzoxazinone-derivative I.a.35.

wild type PPO enzyme = wild type PPO enzyme (Amaranthus tuberculatus, UniProt Q0NZW9); assay: PPO enzyme assay (recombinant), wild type; format: biochemical; settings: 150 μM Protogen
[2] = Enzyme activity of recombinant wild type and substituted PPO enzymes; settings: fluorescence unit change per minute

C#CCN1C(=O)C(F)(F)Oc2cc(F)c(-n3c(=O)n(C)c(=S)n(C)c3=O)cc21 [benzoxazinone 1.a.35]
growth of mutagenized Chlamydomonas reinhardtii cells (colony formation) [1]: susceptible cells do not grow
IC50 (wild type PPO enzyme): 0.12 nM

B1: F420M: amino acid substituted PPO enzyme F420M (protein, listed as Amaranthus tuberculatum)
chain: MVIQSITHLSPNLALPSPLSVSTKNYPVAVMGNISEREEPTSAKRVAVVGAGVSGLAAAYKLKSHGLSVTLFEADSRAGGKLKTVKKDGFIWDEGANTMTESEAEVSSLIDDLGLREKQQLPISQNKRYIARDGLPVLLPSNPAALLTSNILSAKSKLQIMLEPFLWRKHNATELSDEHVQESVGEFFERHFGKEFVDYVIDPFVAGTCGGDPQSLSMHHTFPEVWNIEKRFGSVFAGLIQSTLLSKKEKGGENASIKKPRVRGSFSFQGGMQTLVDTMCKQLGEDELKLQCEVLSLSYNQKGIPSLGNWSVSSMSNNTSEDQSYDAVVVTAPIRNVKEMKIMKFGNPFSLDFIPEVTYVPLSVMITAFKKDKVKRPLEGFGVLIPSKEQHNGLKTLGTLFSSMMFPDRAPSDMCLFTTMVGGSRNRKLANASTDELKQIVSSDLQQLLGTEDEPSFVNHLFWSNAFPLYGHNYDSVLRAIDKMEKDLPGFFYAGNHKGGLSVGKAMASGCKAAELVISYLDSHIYVKMDEKTA
Activity (FU/min) [2]: 353 FU/min

B2: R128A: amino acid substituted PPO enzyme R128A (protein, listed as Amaranthus tuberculatum)
chain: B1 chain with R128A, M420F
Activity (FU/min) [2]: 731 FU/min

B3: F420L: amino acid substituted PPO enzyme F420L (protein, listed as Amaranthus tuberculatum)
chain: B1 chain with M420L
Activity (FU/min) [2]: 203 FU/min
